Consider two substances from article PMC5836512.

Usually Kd stands for the free concentration of one partner at which half of the binding sites on the other are occupied at equilibrium, for simple one-to-one binding. As a reminder, the koff is a measure of how fast the partners let go of each other. A high value points to fast dissociation.

One experiment has as its target Cul1-Rbx1 (Homo sapiens) (UniProt Q13616). To be noted: cited from earlier work.
A further experiment addresses ^3xFLAGpIκBα (UniProt P25963). In words: co-IP.

Chain of ^3xFLAGpIκBα (P25963 whole entry): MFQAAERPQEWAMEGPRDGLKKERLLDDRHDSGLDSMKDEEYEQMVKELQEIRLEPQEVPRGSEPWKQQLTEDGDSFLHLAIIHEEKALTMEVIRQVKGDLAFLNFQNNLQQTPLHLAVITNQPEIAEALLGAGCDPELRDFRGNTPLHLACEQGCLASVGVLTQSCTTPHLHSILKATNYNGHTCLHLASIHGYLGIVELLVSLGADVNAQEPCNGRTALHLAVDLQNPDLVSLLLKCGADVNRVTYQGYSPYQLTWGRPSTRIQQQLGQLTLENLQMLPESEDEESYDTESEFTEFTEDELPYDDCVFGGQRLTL
Chain of Dcn1 (Q96GG9 whole entry): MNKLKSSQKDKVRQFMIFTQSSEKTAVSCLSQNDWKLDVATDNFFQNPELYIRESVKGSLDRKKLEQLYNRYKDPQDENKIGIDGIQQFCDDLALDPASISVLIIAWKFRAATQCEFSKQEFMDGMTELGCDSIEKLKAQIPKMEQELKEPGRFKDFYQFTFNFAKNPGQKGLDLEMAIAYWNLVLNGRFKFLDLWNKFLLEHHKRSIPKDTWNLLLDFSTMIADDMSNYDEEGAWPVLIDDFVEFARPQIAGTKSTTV

Dcn1 (from UniProt Q96GG9): in the experiment with Cul1-Rbx1 (Homo sapiens), the Kd was 1800 nM.
For “β-TrCP (from UniProt Q9Y297 1-605) (natural protein)”, in the experiment with ^3xFLAGpIκBα, the koff turned out to be 3.3e-05 s⁻¹.
